T1: human LAG3-mFc (human, UniProt P18627 23-450)
T1 construct: also called antigen human LAG3-mFc; not shown: mFc: Fc protein fragment of mouse IgG
T1 sequence (looked up): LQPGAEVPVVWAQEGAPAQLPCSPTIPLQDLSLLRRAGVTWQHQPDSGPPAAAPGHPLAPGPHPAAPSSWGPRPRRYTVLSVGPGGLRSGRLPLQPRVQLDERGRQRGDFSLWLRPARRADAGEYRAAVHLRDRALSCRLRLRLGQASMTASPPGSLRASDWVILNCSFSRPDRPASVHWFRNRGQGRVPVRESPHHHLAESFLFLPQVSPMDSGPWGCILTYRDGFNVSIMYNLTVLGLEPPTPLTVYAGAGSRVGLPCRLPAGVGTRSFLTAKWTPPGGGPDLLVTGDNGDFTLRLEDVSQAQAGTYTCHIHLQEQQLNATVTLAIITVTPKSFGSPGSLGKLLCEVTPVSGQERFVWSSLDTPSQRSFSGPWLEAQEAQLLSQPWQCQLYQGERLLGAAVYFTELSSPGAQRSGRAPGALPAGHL

T2: human LAG3 (full length) expressed on cells (human, UniProt P18627 23-525)
T2 construct: whole, on cells; also called huLAG3FL
T2 sequence (looked up): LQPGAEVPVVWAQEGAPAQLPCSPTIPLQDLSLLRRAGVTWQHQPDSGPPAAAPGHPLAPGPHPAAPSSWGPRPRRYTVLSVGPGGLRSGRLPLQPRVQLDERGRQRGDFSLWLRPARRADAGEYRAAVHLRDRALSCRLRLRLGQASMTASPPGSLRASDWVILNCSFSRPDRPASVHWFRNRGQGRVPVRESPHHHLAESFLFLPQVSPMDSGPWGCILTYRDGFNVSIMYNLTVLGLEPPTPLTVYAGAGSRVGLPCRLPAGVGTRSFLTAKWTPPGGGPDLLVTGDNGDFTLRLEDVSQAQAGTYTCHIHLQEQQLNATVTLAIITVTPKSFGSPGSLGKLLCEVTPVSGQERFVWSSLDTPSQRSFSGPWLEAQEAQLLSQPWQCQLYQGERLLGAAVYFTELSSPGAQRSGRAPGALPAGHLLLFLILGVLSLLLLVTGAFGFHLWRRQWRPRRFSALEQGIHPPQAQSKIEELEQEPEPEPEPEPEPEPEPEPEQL


What was measured:
human LAG3-mFc [1] = molecular target: T1, human LAG3-mFc; test: ELISA, human LAG3-mFc coated 2 ug/mL
Method: Then the ELISA plate coated with the antigen was washed once with PBST and then blocked with a PBS solution containing 1% BSA as a blocking solution at 37° C. for 2 h. After blocking, the ELISA plate was washed 3 times with PBST. The ELISA plate containing the test antibodies was incubated at 37° C. for 30 min and then washed 3 times with PBST. After washing, a working solution of an HRP-labeled goat anti-human IgG (H+L) (Jackson, Cat. No. 109-035-088) secondary antibody diluted at a ratio of 1:5000 was added, and then the plate was incubated at 37° C. for 30 min. After incubation, the plate was washed 4 times with PBST, TMB (Neogen, 308177) was added for chromogenesis in the dark for 5 min, and then a stop solution was added to terminate the chromogenic reaction. The ELISA plate was put into an ELISA plate reader immediately, and the OD value of each well in the ELISA plate was read at 450 nm. The data were analyzed and processed by SoftMax Pro 6.2.1.

human LAG3-mFc [2] = molecular target: T1, human LAG3-mFc; test: competitive flow cytometry: antibody titrated against 3 nM LAG3-mFc binding to MHC II on Raji cells
Method: Raji cells (medium: 1640+10% FBS) (Cell Resource Center, Shanghai Institutes for Biological Sciences, Chinese Academy of Sciences, Cat. No. TCHu 44) were added into EP tubes at 300,000 cells per sample. 1000 μL of 1% PBSA (PBS containing 1% BSA) was added. The mixture was centrifuged at 600×g for 5 min, and the supernatant was discarded. […] The mixture was mixed well and pre-incubated on ice for 30 min. 100 μL of the pre-incubated mixture of antibody and protein was added to the sample. The mixture was mixed well and incubated on ice in the dark for 1 h; 200 μL of 1% PBSA was added, and the mixture was centrifuged at 600×g for 5 min, followed by removal of the supernatant, and then washed twice; 100 μL of an APC anti mouse antibody (purchased from Biolegend, Cat. No. 405308) (diluted at a 1:400 ratio) was added, and the mixture was mixed well and incubated on ice in the dark for 40 min; 200 μL of 1% PBSA was added, and the mixture was centrifuged at 600×g for 5 min, followed by removal of the supernatant; 200 μL of Washing Buffer was added into each tube to resuspend the cells, and then the suspension was transferred to a sample loading tube for testing on a flow cytometer.

[3] = molecular target: T2, human LAG3 (full length) expressed on …; test: flow cytometry on 293T-LAG3 cells
Method: After centrifugation and washing several times with 1% PBSA, 100 μL of FITC goat anti-human IgG (purchased from Jackson, Cat. No. 109-095-098) (diluted at a 1:500 ratio) was added into each tube, and the mixture was incubated on ice in the dark for 40 min. After washing once with 1% PBSA, 200 μL of 1% PBSA was added to resuspend the cells. Fluorescence signals were detected with FITC channel on a flow cytometer.

EC50 (human LAG3-mFc [1]) [nM]	EC50 (human LAG3-mFc [2]) [nM]	EC50 [3] [nM]	Binder
0.142	1.32	4.81	H7L9(hG4WT) (antibody, human IgG4 S228P, kappa, V domains shown, Humanized anti-LAG3 IgG4 (Ig gamma-4 chain C region) with human kappa constant region) VH: QVQLQQWGAGLLKPSETLSLTCAVYGGSISDYYWNWIRQPPGKGLEWIGEINHRGTTNSNPSLKSRVTLSLDTSKNQFSLKLRSVTAADTAVYYCAFGYSDYEYDWFDPWGQGTLVTVSS VL: EIVLTQSPATLSLSPGERATLSCRASQTISSYLAWYQQKPGQAPRLLIYDGSNRATGIPARFSGSGSGTDFTLTISSLEPEDFAVYYCQQRSNWPLTFGQGTNLEIKR
0.157	1.27	4.17	H7L10(hG4WT) (antibody, human IgG4 S228P, kappa, V domains shown, Humanized anti-LAG3 IgG4 (Ig gamma-4 chain C region) with human kappa constant region) VH: QVQLQQWGAGLLKPSETLSLTCAVYGGSISDYYWNWIRQPPGKGLEWIGEINHRGTTNSNPSLKSRVTLSLDTSKNQFSLKLRSVTAADTAVYYCAFGYSDYEYDWFDPWGQGTLVTVSS VL: EIVLTQSPATLSLSPGERATLSCRASQSISSYLAWYQQKPGQAPRLLIYDGSNRATGIPARFSGSGSGTDFTLTISSLEPEDFAVYYCQQRSNWPITFGQGTNLEIKR

Reference: patent publication US20250042995A1 (AKESO BIOPHARMA, published 2025)
